B1: 3B04_var13 (antibody, V domains shown)
VH: QVQLVQSGAEVKKPGASVKVSCKASGYTFTDYEMHWVRQAPGQGLEWIGEIDPETGDTAYSQKFKGRATLTADKSTSTAYMEFSSLRSEDTAVYYCSRETDYFFDYWGQGTLVTVSS
VL: DIQMTQSPSSLSASVGDRVTITCRASENIYGALNWYQQKPGKAPKLLIYGATNLAEGVPSRFSGSGSGRDYTLTISSLQPEDFATYYCQNVLTTPWTFGQGTKLEIKR
B2: 3B04_var14 (antibody, V domains shown)
VH: QVQLVQSGAEVKKPGASVKVSCKASGYTFTDYEMHWVRQAPGQGLEWIGEIDPETGDTAYSQKFQGRVTLTADKSTSTAYMEFSSLRSEDTAVYYCSRETDYFFDYWGQGTLVTVSS
VL: DIQMTQSPSSLSASVGDRVTITCRASENIYGALNWYQQKPGKAPKLLIYGATNLAEGVPSRFSGSGSGRDYTLTISSLQPEDFATYYCQNVLTTPWTFGQGTKLEIKR
B3: 3D12_var13 (antibody, V domains shown)
VH: QVQLVQSGAEVKKPGASVKVSCKASDYTFTDSEIHWVRQAPGQGLEWIGEIDPETGGTAYNQKFKGRATLTADKSTSTAYMELSSLRSEDTAVYYCSRETDYFFDYWGQGTLVTVSS
VL: DIQMTQSPSSLSASVGDRVTITCRASENIYGALNWYQQKPGKAPKLLIYGATNLAEGVPSRFSGSGSGRDYTLTISSLQPEDVATYYCQNVLSTPWTFGQGTKLEIKR
B4: 3D12_var14 (antibody, V domains shown)
VH: QVQLVQSGAEVKKPGASVKVSCKASDYTFTDSEIHWVRQAPGQGLEWIGEIDPETGGTAYNQKFQGRVTLTADKSTSTAYMELSSLRSEDTAVYYCSRETDYFFDYWGQGTLVTVSS
VL: DIQMTQSPSSLSASVGDRVTITCRASENIYGALNWYQQKPGKAPKLLIYGATNLAEGVPSRFSGSGSGRDYTLTISSLQPEDVATYYCQNVLSTPWTFGQGTKLEIKR
B5: 3B04_var16 (antibody, V domains shown)
VH: QVQLVQSGAEVKKPGASVKVSCKASGYTFTDYEMHWVRQAPGQGLEWMGEIDPETGDTAYAQKFQGRVTLTADKSTSTAYMELSSLRSEDTAVYYCSRETDYFFDYWGQGTLVTVSS
VL: DIQMTQSPSSLSASVGDRVTITCRASENIYGALNWYQQKPGKAPKLLIYGATNLAEGVPSRFSGSGSGRDYTLTISSLQPEDFATYYCQNVLTTPWTFGQGTKLEIKR
B6: 3D12_var15 (antibody, V domains shown)
VH: QVQLVQSGAEVKKPGASVKVSCKASDYTFTDSEIHWVRQAPGQGLEWMGEIDPETGGTAYAQKFQGRVTLTADKSTSTAYMELSSLRSEDTAVYYCSRETDYFFDYWGQGTLVTVSS
VL: DIQMTQSPSSLSASVGDRVTITCRASENIYGALNWYQQKPGKAPKLLIYGATNLAEGVPSRFSGSGSGRDYTLTISSLQPEDVATYYCQNVLSTPWTFGQGTKLEIKR
B7: 3D12_var16 (antibody, V domains shown)
VH: QVQLVQSGAEVKKPGASVKVSCKASGYTFTDSEMHWVRQAPGQGLEWMGEIDPETGGTAYAQKFQGRVTLTADKSTSTAYMELSSLRSEDTAVYYCSRETDYFFDYWGQGTLVTVSS
VL: DIQMTQSPSSLSASVGDRVTITCRASENIYGALNWYQQKPGKAPKLLIYGATNLAEGVPSRFSGSGSGRDYTLTISSLQPEDVATYYCQNVLSTPWTFGQGTKLEIKR
B8: 3B04 chimeric IgG4 mAb (antibody, V domains shown)
VH: QVQLQQPGAELVRPGASVTLSCKASGYTFTDYEMHWVKQTPVHGLEWIGEIDPETGDTAYSQKFKGKATLTADKSSSTAYMEFRSLTSEDSAVYYCSRETDYFFDYWGQGTTLTVSS
VL: DIQMTQTPASLSASVGETVTITCGASENIYGALNWYQRKQGKSPQLLIYGATNLADGMSSRFSGSGSGRQYSLKISSLHPDDFATYYCQNVLTTPWTFGGGTKLEIK
B9: 3D12 chimeric IgG4 mAb (antibody, V domains shown)
VH: QVQLQQPGAELVRPGASVTLSCKASDYTFTDSEIHWVKQTPVHGLEWIGEIDPETGGTAYNQKFKGKATLTADKSSSTAYMELRSLTSEDSAVYYCSRETDYFFDYWGQGTTLTVSS
VL: DIQMTQSPASLSASVGETVTITCGASENIYGALNWYQRKQGKSPQLLIYGATNLADGMSSRFSGSGSGRQYSLKISSLHPDDVATYYCQNVLSTPWTFGGGTKLEIK
B10: 2E08 chimeric IgG4 mAb (antibody, V domains shown)
VH: QVQMKESGAELVRPGVSVKISCKGSGYTFTDYAIHWVKQSHAKTLEWIGVISTYYGDASYNQKFKGKATMTVDKSSSTAYMELARLTSDDSAIYYCARSRGEYGNYDAMDYWGQGTSVTVSS
VL: DIVLTQSPASLAVSLGQRATISCKASQSVDYDGDSYMNWYQQKPGQPPKLLIYAASNLESGIPARFSGSGSGTDFTLNIHPVEEEDAATYYCQQSNEDPLTFGAGTKLELK
B11: 3A07 chimeric IgG4 mAb (antibody, V domains shown)
VH: QVQLQQSGAELVRPGAPVTLSCKASDYTFTDSEIHWVKQTPVHGLEWIGEIDPETGGTAYNQKFKGKATLTADKSSSTAYMELRSLTSEDSAVYYCSRETDYFFDYWGQGTTLTVSS
VL: ENVLTQSPAIMSASPGEKVTMTCSASSSVSYMYWYQQRPGSSPRLLIYDTSNLASGVPVRFSGSGSGTSYSLTISRMEAEDAATYYCQQWSSYPLTFGSGTKLEIK
B12: 3C10 chimeric IgG4 mAb (antibody, V domains shown)
VH: EVQLQQSGAELVRPGASVTLSCKASDYTFTDSEIHWVKQTPVHGLEWIGEIDPETGGTAYNQKFKGKATLTADKSSSTAYMELRSLTSEDSAVYYCSRETDYFFDYWGQGTTLTVSS
VL: DVVMTQTPAIMSASPGEKVTMTCSASSSVSYMYWYQQKPGSSPRLLIYDTSNLASGVPVRFSGSGSGTSYSLTISRMEAEDAATYYCQQWSSYPLTFGAGTKLELK
B13: 2B11 chimeric IgG4 mAb (antibody, V domains shown)
VH: EVQLVESGAELVRPGVSVKISCKGSGYTFTDYAIHWVKQSHAKSLEWIGVISTYYGDASYNQKFKGKATMTVDKSSSTAYMELARLTSEDSAIYYCARSRGEYGNYDAMDYWGQGTSVTVSS
VL: DIVLTQSPASLAVSLGQRATISCRASESVDSYGNSFMHWYQQKPGQPPKLLIYRASNLESGIPARFSGSGSRTDFTLTINPVEADDVATYYCQQSNEDPYTFGGGTKLEIK

How the values were obtained:
[1] = target: LIGHT without residues 81-84, stably expressed on EL4 cells (EL4-NC-LIGHT); experiment: cell-based or functional assay
[2] = target: Human LIGHT stably expressed on EL4 cells (EL4-LIGHT) (human) (UniProt O43557); experiment: flow cytometry, EL4-LIGHT cells
[3] = target: Wild type full length LIGHT on HEK293FF cells (alanine scanning control) (UniProt O43557); experiment: flow cytometry, HEK293FF, mAb at EC50

Sequence of Human LIGHT stably expressed on EL4 cells (EL4-LIGHT) (human) (O43557 whole entry): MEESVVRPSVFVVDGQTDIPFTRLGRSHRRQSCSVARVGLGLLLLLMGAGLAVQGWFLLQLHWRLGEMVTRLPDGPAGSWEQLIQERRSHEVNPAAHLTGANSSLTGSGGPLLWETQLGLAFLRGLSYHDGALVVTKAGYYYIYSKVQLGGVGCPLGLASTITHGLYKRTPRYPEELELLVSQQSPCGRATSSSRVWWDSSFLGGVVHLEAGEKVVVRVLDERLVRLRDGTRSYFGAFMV

Binder	IC50, inhibition of IL-8 secretion, HT-29 + EL4-NC-LIGHT cells [1] [pM]	EC50 [2] [pM]	% of WT binding [3] [%]
B1	40	320	
B2	50	300	
B3	450	240	
B4	450	230	
B5	100	240	
B6	380	220	
B7	520	260	
B8			100
B9			100
B10			100
B11			100
B12			100
B13			100
